# Patent EP4339209A1 (MediMabbio Inc., dated 2024)
# Numbering of substitutions follows the chain as printed.
# T1: hGITR (including His tag; Cat. GIR-H5228, Acrobiosystems) (human, UniProt Q9Y5U5 26-162)
# T1 construct: Bought protein; not shown: His tag
# T1 sequence: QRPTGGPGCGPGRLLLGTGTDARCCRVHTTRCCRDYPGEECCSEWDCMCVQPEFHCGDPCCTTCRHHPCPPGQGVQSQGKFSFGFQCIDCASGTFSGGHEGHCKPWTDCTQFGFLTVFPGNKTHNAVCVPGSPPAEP
# T2: human GITR expressed on human primary immune cells (T cells, NK cells, NKT cells of PBMC) (human, UniProt Q9Y5U5 26-241)
# T2 construct: Native GITR of donor PBMC; also called hGITR in human primary immune cells; GITR on the surface of immune cells
# T2 sequence: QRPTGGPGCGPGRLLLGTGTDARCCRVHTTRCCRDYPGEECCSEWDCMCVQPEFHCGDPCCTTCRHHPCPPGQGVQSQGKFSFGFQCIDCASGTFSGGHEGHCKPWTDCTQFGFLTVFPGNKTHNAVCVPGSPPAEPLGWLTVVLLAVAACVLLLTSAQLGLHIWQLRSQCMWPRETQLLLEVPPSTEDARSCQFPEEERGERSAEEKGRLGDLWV
# B1: 51B antibody (as used in the epitope mapping, Example 1.7) (antibody, V domains shown)
# VH: QVQLQQSGAELMKPGASVKLSCKTTGYRFTGYWIEWVKQRPGHGLEWIGEILPGSGATYYSENFKGKATFTADTSSNTAYMQVSSLTTGDSAIYYCARKGGYYAMDYWGQGTSVTVSS
# VL: QIVLTQSPAIMSASLGERVTMTCTASSSVSSSYFHWYQQKPGSSPKLWIYSTSNLASGVPARFSGSGSGTSYSLTVSSLEAEDAATYYCHLYHRSPRTFGGGTTLDIK
# notes: also called anti-GITR monoclonal antibody (51B clone)
# B2: anti-GITR 51B VH0/VL0 chimeric antibody (human IgG1, kappa) (antibody, V domains shown)
# VH: B1 VH
# VL: QIVLTQSPAIMSASLGERVTMTCTASSSVSSSYFHWYQQKPGSSPKLWIYSTSNLASGVPARFSGSGSGTSYSLTVSSLEAEDAATYYCHLYHRSPRTFGGGTTLDIKR
# notes: Chimeric antibody; also called VH0/Vk0; 51B VH0/Vk0
# B3: anti-GITR 51B VH3/VL4 humanized antibody (human IgG1, kappa) (antibody, V domains shown)
# VH: QVQLVQSGAEVKKPGASVKVSCKTTGYRFTGYWIEWVRQPPGKGLEWIGEILPGSGATYYSENFKGKVTITADTSTDTAYMELSSLRSEDTAIYYCARKGGYYAMDYWGQGTLVTVSS
# VL: EIVLTQSPATLSLSPGERATLSCTASSSVSSSYFHWYQQKPGKAPKLWIYSTSNLQSGVPDRFSGSGSGTDYTLTISSLQAEDVATYYCHLYHRSPRTFGGGTKVEIKR
# notes: also called VH3/Vk4; 51B VH3/Vk4
# B4: anti-GITR 51B VH3/VL1 humanized antibody (human IgG1, kappa) (antibody, V domains shown)
# VH: B3 VH
# VL: B2 VL with T22S, S44A, A61D, S71D, S73T, E80Q, A84V, L105V
# B5: anti-GITR 51B VH4/VL4 humanized antibody (human IgG1, kappa) (antibody, V domains shown)
# VH: B3 VH with E35N
# VL: B3 VL
# B6: anti-GITR 51B VH3/VL5 humanized antibody (human IgG1, kappa) (antibody, V domains shown)
# VH: B3 VH
# VL: B3 VL with Q56E
# B7: anti-GITR 51B VH1/VL0 antibody (human IgG1, kappa) (antibody, V domains shown)
# VH: B3 VH with V11L, V20L, V68A, D77N, L83V, E89G, T91S, L113S
# VL: B2 VL
# B8: anti-GITR 51B VH1/VL1 humanized antibody (human IgG1, kappa) (antibody, V domains shown)
# VH: B3 VH with V11L, V20L, V68A, D77N, L83V, E89G, T91S, L113S
# VL: B2 VL with T22S, S44A, A61D, S71D, S73T, E80Q, A84V, L105V
# B9: anti-GITR 51B VH5/VL1 humanized antibody (human IgG1, kappa) (antibody, V domains shown)
# VH: B3 VH with E35D
# VL: B2 VL with T22S, S44A, A61D, S71D, S73T, E80Q, A84V, L105V
# B10: anti-GITR 51B VH4/VL1 humanized antibody (human IgG1, kappa) (antibody, V domains shown)
# VH: B3 VH with E35N
# VL: B2 VL with T22S, S44A, A61D, S71D, S73T, E80Q, A84V, L105V
# B11: anti-GITR 51B VH0/VL1 antibody (human IgG1, kappa) (antibody, V domains shown)
# VH: B1 VH
# VL: B2 VL with T22S, S44A, A61D, S71D, S73T, E80Q, A84V, L105V
# B12: anti-GITR 51B VH1/VL5 humanized antibody (human IgG1, kappa) (antibody, V domains shown)
# VH: B3 VH with V11L, V20L, V68A, D77N, L83V, E89G, T91S, L113S
# VL: B3 VL with Q56E
# B13: anti-GITR 51B VH2/VL1 humanized antibody (human IgG1, kappa) (antibody, V domains shown)
# VH: B3 VH with V20L, V68A, D77N, L83V
# VL: B2 VL with T22S, S44A, A61D, S71D, S73T, E80Q, A84V, L105V
# B14: anti-GITR 51B VH1/VL4 humanized antibody (human IgG1, kappa) (antibody, V domains shown)
# VH: B3 VH with V11L, V20L, V68A, D77N, L83V, E89G, T91S, L113S
# VL: B3 VL
# B15: anti-GITR 51B VH4/VL5 humanized antibody (human IgG1, kappa) (antibody, V domains shown)
# VH: B3 VH with E35N
# VL: B3 VL with Q56E
# B16: anti-GITR 51B VH5/VL4 humanized antibody (human IgG1, kappa) (antibody, V domains shown)
# VH: B3 VH with E35D
# VL: B3 VL
# B17: anti-GITR 51B VH2/VL4 humanized antibody (human IgG1, kappa) (antibody, V domains shown)
# VH: B3 VH with V20L, V68A, D77N, L83V
# VL: B3 VL
# B18: anti-GITR 51B VH5/VL5 humanized antibody (human IgG1, kappa) (antibody, V domains shown)
# VH: B3 VH with E35D
# VL: B3 VL with Q56E
# B19: anti-GITR 51B VH2/VL5 humanized antibody (human IgG1, kappa) (antibody, V domains shown)
# VH: B3 VH with V20L, V68A, D77N, L83V
# VL: B3 VL with Q56E
# Biological target: T1, hGITR (including His tag; Cat. …)
# Test: DSS cross-linking of the GITR/51B complex, nLC-orbitrap MS/MS
row,binding result,Binder
1,binds,B1

# Biological target: T2, human GITR expressed on human primary …
# Test: flow cytometry, AF488-labelled antibody on activated human PBMC
row,binding result,Binder
1,binds,B2
2,binds,B3

# Biological target: recombinant human GITR (Cat No. 13643-H08H, Lot No. LC12JA2509, Sino Biological) (human) (UniProt Q9Y5U5)
# Test: SPR Biacore 8K, multi-cycle kinetics, purified IgG captured on Protein A, GITR as analyte
Kd [nM],Relative KD (fold vs VH0/VL0),koff [s⁻¹],kon [M⁻¹ s⁻¹],Binder
0.57,1,0.000314,552000,B2
0.606,1.06,0.000482,796000,B4
0.829,1.45,0.000488,590000,B5
0.778,1.37,0.000456,586000,B6
0.675,1.19,0.00043,636000,B3

# Biological target: recombinant human GITR (Cat No. 13643-H08H, Lot No. LC12JA2509, Sino Biological) (human) (UniProt Q9Y5U5)
# Test: SPR Biacore 8K, single-cycle kinetics, IgG in supernatant captured on Protein A, GITR as analyte
Kd [nM],Relative KD (fold vs VH0/VL0),koff [s⁻¹],kon [M⁻¹ s⁻¹],Binder
0.566,1,0.000334,590000,B2
1.08,1.9,0.000654,603000,B7
1.32,2.3,0.000949,721000,B8
1.94,3.4,0.000742,382000,B9
1.05,1.9,0.00066,627000,B10
0.527,0.9,0.000338,642000,B11
1.41,2.5,0.000628,445000,B12
1.1,1.9,0.000734,665000,B13
1.31,2.3,0.000616,469000,B14
0.693,1.2,0.000543,784000,B4
0.987,1.7,0.00053,537000,B5
1.26,2.2,0.000599,474000,B15
1.37,2.4,0.00149,1.08e+06,B16
0.916,1.6,0.000507,554000,B6
0.758,1.3,0.000467,616000,B3
1.15,2,0.000577,502000,B17
3.32,5.9,0.000975,294000,B18
1.33,2.3,0.000635,477000,B19
